Among the data in US20180155451A1 (published 2018) are He/Con_2aH values, retold here.

To fix the notation:
B1: GpH7-A5/GpH7-B3 variant T335_18N/GpL16-k0 (antibody, human IgG1, kappa)
heavy 1: not shown
heavy 2: not shown
light: DIVMTQSPLSLPVTPGEPASISCQASESLVHSNRNTYLHWYLQKPGQSPQLLIYKVSNRFSGVPDRFSGSGSGTDFTLKISRVEAEDVGVYYCSQNTHVPPTFGQGTKVEIERTVAAPSVFIFPPSDEQLKSGTASVVCLLNNFYPREAKVQWKVDNALQSGNSQESVTEQDSKDSTYSLSSTLTLSKADYEKHKVYACEVTHQGLSSPVTKSFNRGEC
notes: heterodimerized, mutation in one H chain only; also called He Ab
B2: GpH7-A5/GpH7-B3 variant K334_16H/GpL16-k0 (antibody, human IgG1, kappa)
heavy 1: not shown
heavy 2: not shown
light: B1 light
notes: as for B1
B3: GpH7-A5/GpH7-B3 variant L328_06M/GpL16-k0 (antibody, human IgG1, kappa)
heavy 1: not shown
heavy 2: not shown
light: B1 light
notes: as for B1
B4: GpH7-A5/GpH7-B3 variant A327_09D/GpL16-k0 (antibody, human IgG1, kappa)
heavy 1: not shown
heavy 2: not shown
light: B1 light
notes: as for B1
B5: GpH7-A5/GpH7-B3 variant E333_14T/GpL16-k0 (antibody, human IgG1, kappa)
heavy 1: not shown
heavy 2: not shown
light: B1 light
notes: as for B1
B6: GpH7-A5/GpH7-B3 variant L328_14T/GpL16-k0 (antibody, human IgG1, kappa)
heavy 1: not shown
heavy 2: not shown
light: B1 light
notes: as for B1
B7: GpH7-A5/GpH7-B3 variant I336_18N/GpL16-k0 (antibody, human IgG1, kappa)
heavy 1: not shown
heavy 2: not shown
light: B1 light
notes: as for B1
B8: GpH7-A5/GpH7-B3 variant K326_07I/GpL16-k0 (antibody, human IgG1, kappa)
heavy 1: not shown
heavy 2: not shown
light: B1 light
notes: as for B1
B9: GpH7-A5/GpH7-B3 variant Y296_09D/GpL16-k0 (antibody, human IgG1, kappa)
heavy 1: not shown
heavy 2: not shown
light: B1 light
notes: as for B1
B10: GpH7-A5/GpH7-B3 variant E333_08L/GpL16-k0 (antibody, human IgG1, kappa)
heavy 1: not shown
heavy 2: not shown
light: B1 light
notes: as for B1
B11: GpH7-A5/GpH7-B3 variant T335_19Q/GpL16-k0 (antibody, human IgG1, kappa)
heavy 1: not shown
heavy 2: not shown
light: B1 light
notes: as for B1
B12: GpH7-A5/GpH7-B3 variant L235_15Y/GpL16-k0 (antibody, human IgG1, kappa)
heavy 1: not shown
heavy 2: not shown
light: B1 light
notes: as for B1
B13: GpH7-A5/GpH7-B3 variant T335_01G/GpL16-k0 (antibody, human IgG1, kappa)
heavy 1: not shown
heavy 2: not shown
light: B1 light
notes: as for B1
B14: GpH7-A5/GpH7-B3 variant T335_07I/GpL16-k0 (antibody, human IgG1, kappa)
heavy 1: not shown
heavy 2: not shown
light: B1 light
notes: as for B1
B15: GpH7-A5/GpH7-B3 variant H268_18N/GpL16-k0 (antibody, human IgG1, kappa)
heavy 1: not shown
heavy 2: not shown
light: B1 light
notes: as for B1
B16: GpH7-A5/GpH7-B3 variant T335_20W/GpL16-k0 (antibody, human IgG1, kappa)
heavy 1: not shown
heavy 2: not shown
light: B1 light
notes: as for B1
B17: GpH7-A5/GpH7-B3 variant T335_15Y/GpL16-k0 (antibody, human IgG1, kappa)
heavy 1: not shown
heavy 2: not shown
light: B1 light
notes: as for B1
B18: GpH7-A5/GpH7-B3 variant L328_20W/GpL16-k0 (antibody, human IgG1, kappa)
heavy 1: not shown
heavy 2: not shown
light: B1 light
notes: as for B1
B19: GpH7-A5/GpH7-B3 variant K326_12R/GpL16-k0 (antibody, human IgG1, kappa)
heavy 1: not shown
heavy 2: not shown
light: B1 light
notes: as for B1
B20: GpH7-A5/GpH7-B3 variant I336_10E/GpL16-k0 (antibody, human IgG1, kappa)
heavy 1: not shown
heavy 2: not shown
light: B1 light
notes: as for B1
B21: GpH7-A5/GpH7-B3 variant E333_04F/GpL16-k0 (antibody, human IgG1, kappa)
heavy 1: not shown
heavy 2: not shown
light: B1 light
notes: as for B1
B22: GpH7-A5/GpH7-B3 variant T335_16H/GpL16-k0 (antibody, human IgG1, kappa)
heavy 1: not shown
heavy 2: not shown
light: B1 light
notes: as for B1
B23: GpH7-A5/GpH7-B3 variant Y296_04F/GpL16-k0 (antibody, human IgG1, kappa)
heavy 1: not shown
heavy 2: not shown
light: B1 light
notes: as for B1
B24: GpH7-A5/GpH7-B3 variant E333_13S/GpL16-k0 (antibody, human IgG1, kappa)
heavy 1: not shown
heavy 2: not shown
light: B1 light
notes: as for B1
B25: GpH7-A5/GpH7-B3 variant S239_09D/GpL16-k0 (antibody, human IgG1, kappa)
heavy 1: not shown
heavy 2: not shown
light: B1 light
notes: as for B1
B26: GpH7-A5/GpH7-B3 variant S337_10E/GpL16-k0 (antibody, human IgG1, kappa)
heavy 1: not shown
heavy 2: not shown
light: B1 light
notes: as for B1
B27: GpH7-A5/GpH7-B3 variant T335_13S/GpL16-k0 (antibody, human IgG1, kappa)
heavy 1: not shown
heavy 2: not shown
light: B1 light
notes: as for B1
B28: GpH7-A5/GpH7-B3 variant I336_08L/GpL16-k0 (antibody, human IgG1, kappa)
heavy 1: not shown
heavy 2: not shown
light: B1 light
notes: as for B1
B29: GpH7-A5/GpH7-B3 variant S324_02A/GpL16-k0 (antibody, human IgG1, kappa)
heavy 1: not shown
heavy 2: not shown
light: B1 light
notes: as for B1
B30: GpH7-A5/GpH7-B3 variant K334_08L/GpL16-k0 (antibody, human IgG1, kappa)
heavy 1: not shown
heavy 2: not shown
light: B1 light
notes: as for B1
B31: GpH7-A5/GpH7-B3 variant T335_10E/GpL16-k0 (antibody, human IgG1, kappa)
heavy 1: not shown
heavy 2: not shown
light: B1 light
notes: as for B1
B32: GpH7-A5/GpH7-B3 variant K326_06M/GpL16-k0 (antibody, human IgG1, kappa)
heavy 1: not shown
heavy 2: not shown
light: B1 light
notes: as for B1
B33: GpH7-A5/GpH7-B3 variant A330_19Q/GpL16-k0 (antibody, human IgG1, kappa)
heavy 1: not shown
heavy 2: not shown
light: B1 light
notes: as for B1
B34: GpH7-A5/GpH7-B3 variant H268_19Q/GpL16-k0 (antibody, human IgG1, kappa)
heavy 1: not shown
heavy 2: not shown
light: B1 light
notes: as for B1
B35: GpH7-A5/GpH7-B3 variant G236_07I/GpL16-k0 (antibody, human IgG1, kappa)
heavy 1: not shown
heavy 2: not shown
light: B1 light
notes: as for B1
B36: GpH7-A5/GpH7-B3 variant V266_08L/GpL16-k0 (antibody, human IgG1, kappa)
heavy 1: not shown
heavy 2: not shown
light: B1 light
notes: as for B1
B37: GpH7-A5/GpH7-B3 variant Y296_16H/GpL16-k0 (antibody, human IgG1, kappa)
heavy 1: not shown
heavy 2: not shown
light: B1 light
notes: as for B1
B38: GpH7-A5/GpH7-B3 variant I336_03V/GpL16-k0 (antibody, human IgG1, kappa)
heavy 1: not shown
heavy 2: not shown
light: B1 light
notes: as for B1
B39: GpH7-A5/GpH7-B3 variant H268_02A/GpL16-k0 (antibody, human IgG1, kappa)
heavy 1: not shown
heavy 2: not shown
light: B1 light
notes: as for B1
B40: GpH7-A5/GpH7-B3 variant K326_01G/GpL16-k0 (antibody, human IgG1, kappa)
heavy 1: not shown
heavy 2: not shown
light: B1 light
notes: as for B1
B41: GpH7-A5/GpH7-B3 variant K326_19Q/GpL16-k0 (antibody, human IgG1, kappa)
heavy 1: not shown
heavy 2: not shown
light: B1 light
notes: as for B1
B42: GpH7-A5/GpH7-B3 variant G236_14T/GpL16-k0 (antibody, human IgG1, kappa)
heavy 1: not shown
heavy 2: not shown
light: B1 light
notes: as for B1
B43: GpH7-A5/GpH7-B3 variant G236_15Y/GpL16-k0 (antibody, human IgG1, kappa)
heavy 1: not shown
heavy 2: not shown
light: B1 light
notes: as for B1
B44: GpH7-A5/GpH7-B3 variant Y296_18N/GpL16-k0 (antibody, human IgG1, kappa)
heavy 1: not shown
heavy 2: not shown
light: B1 light
notes: as for B1
B45: GpH7-A5/GpH7-B3 variant K326_10E/GpL16-k0 (antibody, human IgG1, kappa)
heavy 1: not shown
heavy 2: not shown
light: B1 light
notes: as for B1
B46: GpH7-A5/GpH7-B3 variant E333_09D/GpL16-k0 (antibody, human IgG1, kappa)
heavy 1: not shown
heavy 2: not shown
light: B1 light
notes: as for B1
B47: GpH7-A5/GpH7-B3 variant S267_02A/GpL16-k0 (antibody, human IgG1, kappa)
heavy 1: not shown
heavy 2: not shown
light: B1 light
notes: as for B1
B48: GpH7-A5/GpH7-B3 variant G236_03V/GpL16-k0 (antibody, human IgG1, kappa)
heavy 1: not shown
heavy 2: not shown
light: B1 light
notes: as for B1
B49: GpH7-A5/GpH7-B3 variant L235_04F/GpL16-k0 (antibody, human IgG1, kappa)
heavy 1: not shown
heavy 2: not shown
light: B1 light
notes: as for B1
B50: GpH7-A5/GpH7-B3 variant A330_16H/GpL16-k0 (antibody, human IgG1, kappa)
heavy 1: not shown
heavy 2: not shown
light: B1 light
notes: as for B1
B51: GpH7-A5/GpH7-B3 variant K334_04F/GpL16-k0 (antibody, human IgG1, kappa)
heavy 1: not shown
heavy 2: not shown
light: B1 light
notes: as for B1
B52: GpH7-A5/GpH7-B3 variant L235_20W/GpL16-k0 (antibody, human IgG1, kappa)
heavy 1: not shown
heavy 2: not shown
light: B1 light
notes: as for B1
B53: GpH7-A5/GpH7-B3 variant S337_09D/GpL16-k0 (antibody, human IgG1, kappa)
heavy 1: not shown
heavy 2: not shown
light: B1 light
notes: as for B1
B54: GpH7-A5/GpH7-B3 variant G236_04F/GpL16-k0 (antibody, human IgG1, kappa)
heavy 1: not shown
heavy 2: not shown
light: B1 light
notes: as for B1
B55: GpH7-A5/GpH7-B3 variant I336_06M/GpL16-k0 (antibody, human IgG1, kappa)
heavy 1: not shown
heavy 2: not shown
light: B1 light
notes: as for B1
B56: GpH7-A5/GpH7-B3 variant V266_07I/GpL16-k0 (antibody, human IgG1, kappa)
heavy 1: not shown
heavy 2: not shown
light: B1 light
notes: as for B1

In this test the target is FcγRIIa H (human FcγRIIa, allotype with His at position 131), extracellular domain with C-terminal His tag (human, UniProt P12318 34-217). Put plainly: SPR (Biacore), antibody captured on antigen peptide chip, FcγR as analyte; relative to HeCon Ab GpH7-A5/GpH7-B3/GpL16-k0 = 100.
Molecule B1 had a He/Con_2aH of 103 control = 100. As for B2, the figure is 104 control = 100. For B3 the value was 104 control = 100; for B4, 105 control = 100; for B5, 100 control = 100. For B6, the He/Con_2aH was found to be 116 control = 100. For B7 the value was 103 control = 100; for B8, 100 control = 100.

As to B9, the He/Con_2aH amounted to 104 control = 100. For B10 the value was 102 control = 100.

As for B11, the He/Con_2aH turned out to be 103 control = 100.

B12 had a He/Con_2aH of 122 control = 100. For B13 the value was 103 control = 100; for B14, 108 control = 100; for B15, 112 control = 100. For B16 the value was 105 control = 100; for B17, 106 control = 100; for B18, 113 control = 100.

B19 registered a He/Con_2aH of 101 control = 100. As for B20, the figure is 102 control = 100; as for B21, 102 control = 100; as for B22, 105 control = 100. As for B23, the figure is 100 control = 100.

The molecule B24 showed a He/Con_2aH of 101 control = 100. As for B25, the figure is 114 control = 100. For B26 the value was 102 control = 100; for B27, 106 control = 100; for B28, 106 control = 100.

B29 gave a He/Con_2aH of 102 control = 100. As for B30, the figure is 104 control = 100; as for B31, 108 control = 100; as for B32, 103 control = 100. For B33, the He/Con_2aH was found to be 102 control = 100. For B34 the value was 102 control = 100; for B35, 115 control = 100; for B36, 104 control = 100. As for B37, the figure is 104 control = 100; as for B38, 102 control = 100; as for B39, 114 control = 100. For B40 the value was 100 control = 100; for B41, 101 control = 100; for B42, 103 control = 100. On to B43, for which the He/Con_2aH came out at 136 control = 100. For B44 the value was 104 control = 100; for B45, 102 control = 100; for B46, 103 control = 100. B47 registered a He/Con_2aH of 120 control = 100. As for B48, the figure is 119 control = 100; as for B49, 111 control = 100; as for B50, 101 control = 100. As for B51, the figure is 106 control = 100. The molecule B52 displayed a He/Con_2aH of 118 control = 100.

Take B53: the He/Con_2aH amounted to 107 control = 100. Consider B54, for which the He/Con_2aH was found to be 118 control = 100. As for B55, the figure is 106 control = 100; as for B56, 106 control = 100.
